Reference: article PMC4230594 (Molecular Biology of the Cell, 2014)

Target: T1, HA-Rlf (mouse, UniProt Q61193 1-778)
T1 sequence (looked up): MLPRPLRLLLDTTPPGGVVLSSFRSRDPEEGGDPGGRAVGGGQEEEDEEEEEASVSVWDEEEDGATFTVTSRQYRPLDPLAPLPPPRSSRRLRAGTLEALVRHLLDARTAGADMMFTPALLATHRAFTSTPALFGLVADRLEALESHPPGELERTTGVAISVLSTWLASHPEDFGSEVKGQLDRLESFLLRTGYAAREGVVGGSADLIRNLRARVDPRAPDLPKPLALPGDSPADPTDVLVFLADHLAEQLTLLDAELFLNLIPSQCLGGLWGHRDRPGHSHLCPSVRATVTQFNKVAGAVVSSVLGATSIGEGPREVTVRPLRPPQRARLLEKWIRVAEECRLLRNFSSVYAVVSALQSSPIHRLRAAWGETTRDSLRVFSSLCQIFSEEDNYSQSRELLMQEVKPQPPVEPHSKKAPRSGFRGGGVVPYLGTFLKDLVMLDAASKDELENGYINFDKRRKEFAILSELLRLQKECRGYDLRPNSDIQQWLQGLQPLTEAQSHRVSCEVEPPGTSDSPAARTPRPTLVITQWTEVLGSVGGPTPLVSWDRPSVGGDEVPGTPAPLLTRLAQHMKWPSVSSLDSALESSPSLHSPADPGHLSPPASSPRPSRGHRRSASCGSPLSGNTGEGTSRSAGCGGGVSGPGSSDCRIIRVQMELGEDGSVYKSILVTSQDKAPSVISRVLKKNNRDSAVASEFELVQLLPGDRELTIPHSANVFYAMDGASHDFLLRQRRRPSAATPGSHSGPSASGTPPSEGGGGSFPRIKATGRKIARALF
Test: co-IP

fold binding against wild-type Rab10: 2 fold
B1: Myc-Rab10 (QL) (natural protein, UniProt P61026 1-200, looked up)
chain: MAKKTYDLLFKLLLIGDSGVGKTCVLFRFSDDAFNTTFISTIGIDFKIKTVELQGKKIKLQIWDTAGLERFHTITTSYYRGAMGIMLVYDITNGKSFENISKWLRNIDEHANEDVERMLLGNKCDMDDKRVVPKGKGEQIAREHGIRFFETSAKANINIEKAFLTLAEDILRKTPVKEPNSENVDISSGGGVTGWKSKCC
